Usually Kd stands for the concentration at which binding is half-saturated. Low values mean tighter binding, high ones weaker binding. As usually defined, the koff is a measure of how fast the partners let go of each other. A high value points to fast dissociation. In general, kon refers to the second-order rate constant of association. A lower kon goes with slower complex formation.

For test [1], the target named is Flag-tagged Fn (Flag-Fn) (human) (UniProt P02751). Description: SPR (Biacore), Flag-Fn on the chip, M2 antibody flowed over.
Flag-tagged Fn (Flag-Fn) (human), sequence (P02751 other isoform, or with tags, fused parts or gaps limits assumed): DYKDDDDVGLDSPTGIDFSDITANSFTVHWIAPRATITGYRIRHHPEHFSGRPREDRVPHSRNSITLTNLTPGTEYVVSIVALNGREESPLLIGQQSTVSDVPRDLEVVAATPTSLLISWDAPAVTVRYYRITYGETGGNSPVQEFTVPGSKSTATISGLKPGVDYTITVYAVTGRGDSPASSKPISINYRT
For test [2], the target named is P20.1 antibody (monoclonal antibody produced by mouse-mouse hybridoma P20.1, FERM BP-11061). The experiment in a line: competitive dissociation ELISA: free peptide added for 30 minutes to P20.1 antibody bound on coated P4(20)-Fn. A general note: ELISA stands for enzyme-linked immunosorbent assay.
For test [3] the target is unchanged. Description: competitive elution of the P4×3-tagged hGH fusion protein from P20.1 antibody-Sepharose, SDS gel.
For test [4] the target is unchanged. The experiment in a line: competitive dissociation ELISA: P20.1 antibody bound to coated P4(20)-Fn, free P4(C8) peptide added at the final washing step for 30 minutes; displaced partner P4(20)-Fn.
Test [5] has as its target T1, tag peptide/F-spondin fusion protein (P4×3, TEV protease cleavage sequence, N-terminal 146-amino-acid domain …).
T1 construct: Secreted from HEK293T cells; also called recombinant F-spondin protein
T1 chain: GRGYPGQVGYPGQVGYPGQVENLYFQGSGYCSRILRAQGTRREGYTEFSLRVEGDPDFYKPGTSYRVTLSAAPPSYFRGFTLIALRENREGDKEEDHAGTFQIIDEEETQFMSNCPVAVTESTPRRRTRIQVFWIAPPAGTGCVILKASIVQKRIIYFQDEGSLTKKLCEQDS
The experiment in a line: affinity purification from culture supernatant on P20.1 antibody-Sepharose, elution with 40% propylene glycol and 1 M NaCl, SDS gel electrophoresis.
Description: Washing with TBS and eluting with a buffer solution containing 40% propylene glycol and 1 M NaCl were performed, and the resulting effluent was subjected to SDS gel electrophoresis.

Test [6] addresses T2, hGH-BAS-γC-P4×3, human growth factor/human fibrinogen γ chain C domain fusion protein with 3 repeats of the … (human, UniProt P01241 27-217; P02679 169-437).
T2 construct: also called P4×3-tagged hGH fusion protein
Description: SPR (Biacore X-100), P20.1 antibody-immobilized chip, fusion protein flowed over.

For test [7], the target named is hGH-BAS-γC-P4×5, human growth factor/human fibrinogen γ chain C domain fusion protein with 5 repeats of the … (human, UniProt P01241 27-217; P02679 169-437). Described as above.
The target in test [8] is T3, P4(C8) peptide (8-residue peptide PRGYPGQV) (human).
T3 peptide: PRGYPGQV
Description: X-ray crystallography of the complex.

In the case of “commercially available anti-Flag antibody M2”, in test [1], the Kd amounted to 2.7 nM, the koff stood at 0.000395 s⁻¹ and the kon worked out at 146000 M⁻¹ s⁻¹.

Take PRGYPGQV [P4(C8) peptide (8-residue peptide PRGYPGQV)]: in test [2], the peptide concentration at which almost complete dissociation was confirmed is 0.1 mg/mL. The molecule further had a peptide concentration that elutes the tagged fusion protein in test [3] greater than 0.1 mg/mL. Also, the IC50 (read off the curve) in test [4] is 10 mg/L.

B1: P20.1 antibody (monoclonal antibody produced by mouse-mouse hybridoma P20.1, FERM BP-11061) (antibody, mouse IgG1, V domains shown)
VH: QIQLVQSGPEVQKPGETVRISCKASGYTFTTAGMQWVQKMPGKSLKWIGWINTRSGVPKYAEDFKGRFAFSLETSASIAYLHINNLKNEDTATYFCAREGPGFVYWGQGTLVTVSA
VL: QTVVTQESALTTSPGETVTLTCRSSTGVVTTSNYANWVQEKPDHLFTGLIVGTNNRVPGVPPRFSGSLIGDKAALTITGAQTEDEAIYFCALWYSNHWVFGGGTKLTVL
notes: Biotinylated in the sandwich ELISA of 7-2-1 and coupled to CNBr-Sepharose in the pull-down and purification experiments; also called P20.1 Ab; monoclonal P20.1 antibody
Regarding B1, the binding result in test [5] is “binds”. The “fold of the maximum binding capacity against the fusion protein with one repeat” value in test [6] and in test [7] was no less than 4 fold each time.

B2: Fab fragment of the P20.1 antibody (Fab, V domains shown)
VH: B1 VH
VL: B1 VL
notes: Made by papain digestion of the purified IgG1/lambda antibody; also called P20.1 antibody Fab fragment
On to B2, for which, in test [8], the binding result is “binds”.
